Laboratory results as given in PMC12519199, “Molecular basis of SARS-CoV-2 proofreading enzyme–mediated resistance to remdesivir”.

Target: nsp12 (RdRp catalytic subunit);nsp7;nsp8 (SARS-CoV-2;SARS-CoV-2;SARS-CoV-2, UniProt P0DTD1;P0DTD1;P0DTD1 4393-5324;3860-3942;3943-4140, ||)
Test: fluorescence polarization; higher affinity than T20P14-R
Details: protein: recombinant;recombinant;recombinant; tags: His6-Smt3 removed by Ulp1;His6-Smt3 removed by Ulp1;His6-Smt3 removed by Ulp1; copies: 1;1;2; label: 5'-FAM (FP); hairpin, UUCG loop, 5' overhang 5 nt

GGGAAUGGGAUUUUAAUAGCUUCGGCUAUUAAAAUCCCA (structured_RNA) [T20P14-A]
binding result: binds
